In US20240358855A1 (UNIVERSITY OF UTAH RESEARCH FOUNDATION, published 2024):

T1: CRP (UniProt P02741 19-224)
T1 construct: Bought protein coated on plates; also called C reactive protein
T1 sequence (looked up): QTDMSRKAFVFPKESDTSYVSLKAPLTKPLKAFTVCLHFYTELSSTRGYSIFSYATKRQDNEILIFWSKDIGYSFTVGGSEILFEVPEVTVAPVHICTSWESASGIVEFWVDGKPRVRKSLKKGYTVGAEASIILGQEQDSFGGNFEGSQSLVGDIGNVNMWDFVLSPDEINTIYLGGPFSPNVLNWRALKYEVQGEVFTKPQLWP

B1: His-dCFHT.0 (pCTM462) (other)
chain: EATFCDFPKINHGILYDEEKYKPFSQVPTGEVFYYSCEYNFVSPSKSFWTRITCTEEGWSPTPKCLRLCFFPFVENGHSESSGQTHLEGDTVQIICNTGYRLQNNENNISCVERGWSTPPKCRSGGGGSGGGGSEDCNELPPRRNTEILTGSWSDQTYPEGTQAIYKCRPGYRSLGNIIMVCRKGEWVALNPLRKCQKRPCGHPGDTPFGTFTLTGGNVFEYGVKAVYTCNEGYQLLGEINYRECDTDGWTNDIPICEVVKCLPVTAPENGKIVSSAMEPDREYHFGQAVRFVCNSGYKIEGDEEMHCSDDGFWSKEKPKCVEISCKSPDVINGSPISQKIIYKENERFQYKCNMGYEYSERGDAVCTESGWRPLPSCEEKSCDNPYIPNGDYSPLRIKHRTGDEITYQCRNGFYPATRGNTAKCTSTGWIPAPRCTLKPCDYPDIKHGGLYHENMRRPYFPVAVGKYYSYYCDEHFETPSGSYWDHIHCTQDGWSPAVPCLRKCYFPYLENGYNQNYGRKFVQGKSIDVACHPGYALPKAQTTVTCMENGWSPTPRCIRVSFTL
notes: Protective CFHT with the FHR-1 SCR1/2 homodimerization domain at the N-terminus ('dimer CFHT'); copies 2 follows that description, dimer state not measured; no residue range stated; also called purified recombinant dCFHT.0; not shown: 6x His-TEV tag (87 bp, 29 residues by transgene size: 1839 against 1752)
B2: rCFHT-I62 Protein (other)
chain: EDCNELPPRRNTEILTGSWSDQTYPEGTQAIYKCRPGYRSLGNIIMVCRKGEWVALNPLRKCQKRPCGHPGDTPFGTFTLTGGNVFEYGVKAVYTCNEGYQLLGEINYRECDTDGWTNDIPICEVVKCLPVTAPENGKIVSSAMEPDREYHFGQAVRFVCNSGYKIEGDEEMHCSDDGFWSKEKPKCVEISCKSPDVINGSPISQKIIYKENERFQYKCNMGYEYSERGDAVCTESGWRPLPSCEEKSCDNPYIPNGDYSPLRIKHRTGDEITYQCRNGFYPATRGNTAKCTSTGWIPAPRCTLKPCDYPDIKHGGLYHENMRRPYFPVAVGKYYSYYCDEHFETPSGSYWDHIHCTQDGWSPAVPCLRKCYFPYLENGYNQNYGRKFVQGKSIDVACHPGYALPKAQTTVTCMENGWSPTPRCIRVSFTL
notes: Purified recombinant protective CFHT (I62, Y402); also called purified recombinant CFHT-I62 protein; recombinant CFHT-I62
B3: CFHT.0 (pCTM297) (other)
chain: EDCNELPPRRNTEILTGSWSDQTYPEGTQAIYKCRPGYRSLGNIIMVCRKGEWVALNPLRKCQKRPCGHPGDTPFGTFTLTGGNVFEYGVKAVYTCNEGYQLLGEINYRECDTDGWTNDIPICEVVKCLPVTAPENGKIVSSAMEPDREYHFGQAVRFVCNSGYKIEGDEEMHCSDDGFWSKEKPKCVEISCKSPDVINGSPISQKIIYKENERFQYKCNMGYEYSERGDAVCTESGWRPLPSCEEKSCDNPYIPNGDYSPLRIKHRTGDEITYQCRNGFYPATRGNTAKCTSTGWIPAPRCTLKPCDYPDIKHGGLYHENMRRPYFPVAVGKYYSYYCDEHFETPSGSYWDHIHCTQDGWSPAVPCLRKCYFPYLENGYNQNYGRKFVQGKSIDVACHPGYALPKAQTTVTCMENGWSPTPRCIRVSFTL
notes: also called unmodified CFHT; protective CFHT
B4: His-mCFHT.1 (pCTM459) (other, not shown: small tags and cut ends)
chain: EDCNELPPRRNTEILTGSWSDQTYPEGTQAIYKCRPGYRSLGNIIMVCRKGEWVALNPLRKCQKRPCGHPGDTPFGTFTLTGGNVFEYGVKAVYTCNEGYQLLGEINYRECDTDGWTNDIPICEVVKCLPVTAPENGKIVSSAMEPDREYHFGQAVRFVCNSGYKIEGDEEMHCSDDGFWSKEKPKCVEISCKSPDVINGSPISQKIIYKENERFQYKCNMGYEYSERGDAVCTESGWRPLPSCEEKSCDNPYIPNGDYSPLRIKHRTGDEITYQCRNGFYPATRGNTAKCTSTGWIPAPRCTLKPCDYPDIKHGGLYHENMRRPYFPVAVGKYYSYYCDEHFETPSGSYWDHIHCTQDGWSPAVPCLRKCYFPYLENGYNQNYGRKFVQGKSIDVACHPGYALPKAQTTVTCMENGWSPTPRCIRVRKCYFPYLENGYNQNYGRKFVQGKSIDVACHPGYALPKAQTTVTCMENGWSPTPRCIRVSFTL
notes: Protective CFHT with one additional C-terminal SCR7 domain; also called purified recombinant mCFHT.1
B5: His-mCFHT.2 (pCTM460) (other)
chain: EDCNELPPRRNTEILTGSWSDQTYPEGTQAIYKCRPGYRSLGNIIMVCRKGEWVALNPLRKCQKRPCGHPGDTPFGTFTLTGGNVFEYGVKAVYTCNEGYQLLGEINYRECDTDGWTNDIPICEVVKCLPVTAPENGKIVSSAMEPDREYHFGQAVRFVCNSGYKIEGDEEMHCSDDGFWSKEKPKCVEISCKSPDVINGSPISQKIIYKENERFQYKCNMGYEYSERGDAVCTESGWRPLPSCEEKSCDNPYIPNGDYSPLRIKHRTGDEITYQCRNGFYPATRGNTAKCTSTGWIPAPRCTLKPCDYPDIKHGGLYHENMRRPYFPVAVGKYYSYYCDEHFETPSGSYWDHIHCTQDGWSPAVPCLRKCYFPYLENGYNQNYGRKFVQGKSIDVACHPGYALPKAQTTVTCMENGWSPTPRCIRVRKCYFPYLENGYNQNYGRKFVQGKSIDVACHPGYALPKAQTTVTCMENGWSPTPRCIRVRKCYFPYLENGYNQNYGRKFVQGKSIDVACHPGYALPKAQTTVTCMENGWSPTPRCIRVSFTL
notes: Protective CFHT with two additional C-terminal SCR7 domains; no residue range stated; HEK293 supernatant; not shown: N-terminal 6x His-TEV tag (87 bp, 29 residues by transgene size: 1791 against 1704)

Tests used:
CRP [1] = biological target: T1, CRP; experiment: plate binding ELISA on coated CRP, HEK293 supernatant; fold vs (-) control pCTM395 supernatant
CRP [2] = biological target: T1, CRP; experiment: plate binding ELISA on coated CRP, purified protein; fold vs CFHT-I62
C3b protein [3] = biological target: T2, C3b protein (UniProt P01024 23-667; P01024 749-1663, limits assumed); experiment: plate binding ELISA on coated C3b, purified protein; fold vs CFHT-I62
T2 construct: domain: C3b; Bought protein coated on plates
Description: The C3b binding assay uses C3b protein (Complement Technology, Cat. #A114) diluted with 50 mM carbonate coating buffer (pH 9.6) at a final concentration of 50 μM. A total of 100 μl of C3b/carbonate solution was added to each well of a black MaxiSorp 96-wellmicroplate, covered and incubated overnight at 4° C. Blank control wells were incubated with carbonate coating buffer containing no C3b protein. Wells were washed 3 times with 300 μl PBST then blocked for 1 hour with reagent dilution buffer (1% BSA in PBS). Wells were washed again 3 times with 300 μl PBST. Dilutions of recombinant protective CFH, CFHT, oCFHT or supernatant from transiently transfected or transduced Cos-7 cells were prepared in reagent dilution buffer, added to wells in triplicate and incubated for 1 hour at room temperature. The plate was washed as above then incubated for 1 hour with anti-CFH/CFHT biotinylated aCTM87b antibody (OX-24, AbCam, Cat. #ab112197) at 1:1000 dilution. The plates were washed as above, then incubated for 1 hour with high sensitivity Streptavidin-HRP (Pierce Cat. #21130) at 1:10,000, washed as above then incubated for 5 minutes with SuperSignal ELISA Pico Chemiluminescent Substrate (Thermo Scientific, Cat. #37069) before detection using the BioTek Synergy4 plate reader. […]

C3b protein [4] = biological target: T2, C3b protein; experiment: plate binding ELISA on coated C3b, HEK293 supernatant 25 ng/mL; fold vs (-) control pCTM395 supernatant
Description: The C3b binding assay uses C3b protein (Complement Technology, Cat. #A114) diluted with 50 mM carbonate coating buffer (pH 9.6) at a final concentration of 50 μM. A total of 100 μl of C3b/carbonate solution was added to each well of a black MaxiSorp 96-wellmicroplate, covered and incubated overnight at 4° C. Blank control wells were incubated with carbonate coating buffer containing no C3b protein. Wells were washed 3 times with 300 μl PBST then blocked for 1 hour with reagent dilution buffer (1% BSA in PBS). Wells were washed again 3 times with 300 μl PBST. […] The plate was washed as above then incubated for 1 hour with anti-CFH/CFHT biotinylated aCTM87b antibody (OX-24, AbCam, Cat. #ab112197) at 1:1000 dilution. The plates were washed as above, then incubated for 1 hour with high sensitivity Streptavidin-HRP (Pierce Cat. #21130) at 1:10,000, washed as above then incubated for 5 minutes with SuperSignal ELISA Pico Chemiluminescent Substrate (Thermo Scientific, Cat. #37069) before detection using the BioTek Synergy4 plate reader.
For C3b assays, 25 ng/mL of CFHT protein-containing supernatant was added to plates coated with C3b.

C3d ligand = biological target: T3, C3d ligand (UniProt P01024 1002-1303, limits assumed); experiment: plate binding assay on C3d, purified protein; fold vs CFHT-I62
T3 construct: domain: C3d

C3b protein [5] = biological target: T2, C3b protein; experiment: plate binding ELISA on coated C3b; fold vs (-) control pCTM395 supernatant
CRP [6] = biological target: T1, CRP; experiment: plate binding ELISA on coated CRP; fold vs (-) control pCTM395 supernatant
C3 convertase, C3bBb = C3 convertase, C3bBb (UniProt P01024 23-1663; P00751 260-764, limits assumed); experiment: cell-based or functional assay
Chain of C3 convertase, C3bBb (P01024 23-1663 limits assumed, chain 1 of 2): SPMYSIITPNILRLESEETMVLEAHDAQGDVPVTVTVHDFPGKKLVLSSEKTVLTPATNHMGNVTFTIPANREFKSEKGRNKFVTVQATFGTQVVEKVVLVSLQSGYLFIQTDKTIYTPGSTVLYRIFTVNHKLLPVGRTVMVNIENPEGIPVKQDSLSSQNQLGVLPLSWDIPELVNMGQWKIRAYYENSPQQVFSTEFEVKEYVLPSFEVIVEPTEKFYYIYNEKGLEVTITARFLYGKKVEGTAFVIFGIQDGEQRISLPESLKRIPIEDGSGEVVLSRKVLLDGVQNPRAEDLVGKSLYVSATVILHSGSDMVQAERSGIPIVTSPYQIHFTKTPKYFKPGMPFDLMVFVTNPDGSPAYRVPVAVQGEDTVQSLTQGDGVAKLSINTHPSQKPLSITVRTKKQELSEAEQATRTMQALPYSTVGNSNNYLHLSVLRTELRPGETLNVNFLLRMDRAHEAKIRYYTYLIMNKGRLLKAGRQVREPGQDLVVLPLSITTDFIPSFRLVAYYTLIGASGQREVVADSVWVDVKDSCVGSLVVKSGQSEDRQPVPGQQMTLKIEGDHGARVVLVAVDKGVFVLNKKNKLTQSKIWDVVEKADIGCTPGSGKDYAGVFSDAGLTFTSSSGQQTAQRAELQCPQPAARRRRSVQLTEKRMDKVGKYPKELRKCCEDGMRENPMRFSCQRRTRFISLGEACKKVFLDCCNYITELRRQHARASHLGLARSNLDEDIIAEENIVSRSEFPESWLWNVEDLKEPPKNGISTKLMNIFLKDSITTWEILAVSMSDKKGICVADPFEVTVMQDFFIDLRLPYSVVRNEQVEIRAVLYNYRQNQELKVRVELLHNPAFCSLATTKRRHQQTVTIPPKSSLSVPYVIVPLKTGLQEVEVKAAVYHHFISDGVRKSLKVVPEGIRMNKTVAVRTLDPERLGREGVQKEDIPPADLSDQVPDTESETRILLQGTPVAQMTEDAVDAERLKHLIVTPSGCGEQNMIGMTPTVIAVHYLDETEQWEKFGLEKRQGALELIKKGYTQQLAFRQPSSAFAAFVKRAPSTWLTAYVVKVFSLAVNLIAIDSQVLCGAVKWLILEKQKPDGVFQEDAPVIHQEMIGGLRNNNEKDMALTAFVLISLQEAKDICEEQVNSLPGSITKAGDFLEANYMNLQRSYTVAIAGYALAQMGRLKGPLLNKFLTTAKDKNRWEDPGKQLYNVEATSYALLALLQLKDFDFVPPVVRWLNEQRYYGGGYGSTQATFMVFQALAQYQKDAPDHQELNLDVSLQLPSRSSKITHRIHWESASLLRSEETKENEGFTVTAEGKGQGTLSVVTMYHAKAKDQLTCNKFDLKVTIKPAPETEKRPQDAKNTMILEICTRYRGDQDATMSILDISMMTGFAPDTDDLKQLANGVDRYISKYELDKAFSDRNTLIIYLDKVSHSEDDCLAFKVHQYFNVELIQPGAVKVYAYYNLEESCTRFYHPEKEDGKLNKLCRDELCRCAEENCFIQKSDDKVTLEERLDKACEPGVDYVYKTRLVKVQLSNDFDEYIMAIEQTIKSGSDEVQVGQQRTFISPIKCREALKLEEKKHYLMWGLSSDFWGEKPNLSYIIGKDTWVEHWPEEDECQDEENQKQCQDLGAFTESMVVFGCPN
Chain of C3 convertase, C3bBb (P00751 260-764 limits assumed, chain 2 of 2): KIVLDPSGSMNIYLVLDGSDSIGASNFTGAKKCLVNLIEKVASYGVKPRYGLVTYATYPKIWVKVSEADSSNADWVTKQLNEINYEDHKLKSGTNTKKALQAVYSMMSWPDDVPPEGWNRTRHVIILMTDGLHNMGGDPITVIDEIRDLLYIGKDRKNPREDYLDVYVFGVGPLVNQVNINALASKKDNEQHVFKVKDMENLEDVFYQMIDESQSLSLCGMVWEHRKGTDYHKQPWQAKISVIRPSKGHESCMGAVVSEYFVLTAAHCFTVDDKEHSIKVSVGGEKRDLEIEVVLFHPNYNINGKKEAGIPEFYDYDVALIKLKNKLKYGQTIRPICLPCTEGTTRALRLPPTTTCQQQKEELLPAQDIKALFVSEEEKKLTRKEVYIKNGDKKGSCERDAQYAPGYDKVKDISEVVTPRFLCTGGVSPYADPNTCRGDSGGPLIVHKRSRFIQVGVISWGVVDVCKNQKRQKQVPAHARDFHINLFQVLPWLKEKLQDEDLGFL

T2 sequence (P01024 23-667 limits assumed, chain 1 of 2): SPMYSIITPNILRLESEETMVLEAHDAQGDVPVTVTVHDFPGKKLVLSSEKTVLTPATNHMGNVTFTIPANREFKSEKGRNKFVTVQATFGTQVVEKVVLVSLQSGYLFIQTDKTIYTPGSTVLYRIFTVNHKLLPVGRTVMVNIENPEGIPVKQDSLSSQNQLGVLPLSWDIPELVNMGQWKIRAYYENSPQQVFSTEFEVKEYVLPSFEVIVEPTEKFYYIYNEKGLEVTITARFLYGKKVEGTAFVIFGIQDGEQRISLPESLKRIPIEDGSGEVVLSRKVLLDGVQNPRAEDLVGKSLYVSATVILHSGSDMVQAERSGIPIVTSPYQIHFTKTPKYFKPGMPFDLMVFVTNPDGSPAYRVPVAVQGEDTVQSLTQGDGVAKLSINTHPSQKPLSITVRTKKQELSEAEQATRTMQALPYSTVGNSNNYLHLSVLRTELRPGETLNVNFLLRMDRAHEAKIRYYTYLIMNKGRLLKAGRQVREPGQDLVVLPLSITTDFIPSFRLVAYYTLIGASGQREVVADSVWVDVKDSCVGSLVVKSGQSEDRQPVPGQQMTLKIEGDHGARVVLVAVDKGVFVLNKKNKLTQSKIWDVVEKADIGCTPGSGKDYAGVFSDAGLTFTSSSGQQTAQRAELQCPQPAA
T2 sequence (P01024 749-1663 limits assumed, chain 2 of 2): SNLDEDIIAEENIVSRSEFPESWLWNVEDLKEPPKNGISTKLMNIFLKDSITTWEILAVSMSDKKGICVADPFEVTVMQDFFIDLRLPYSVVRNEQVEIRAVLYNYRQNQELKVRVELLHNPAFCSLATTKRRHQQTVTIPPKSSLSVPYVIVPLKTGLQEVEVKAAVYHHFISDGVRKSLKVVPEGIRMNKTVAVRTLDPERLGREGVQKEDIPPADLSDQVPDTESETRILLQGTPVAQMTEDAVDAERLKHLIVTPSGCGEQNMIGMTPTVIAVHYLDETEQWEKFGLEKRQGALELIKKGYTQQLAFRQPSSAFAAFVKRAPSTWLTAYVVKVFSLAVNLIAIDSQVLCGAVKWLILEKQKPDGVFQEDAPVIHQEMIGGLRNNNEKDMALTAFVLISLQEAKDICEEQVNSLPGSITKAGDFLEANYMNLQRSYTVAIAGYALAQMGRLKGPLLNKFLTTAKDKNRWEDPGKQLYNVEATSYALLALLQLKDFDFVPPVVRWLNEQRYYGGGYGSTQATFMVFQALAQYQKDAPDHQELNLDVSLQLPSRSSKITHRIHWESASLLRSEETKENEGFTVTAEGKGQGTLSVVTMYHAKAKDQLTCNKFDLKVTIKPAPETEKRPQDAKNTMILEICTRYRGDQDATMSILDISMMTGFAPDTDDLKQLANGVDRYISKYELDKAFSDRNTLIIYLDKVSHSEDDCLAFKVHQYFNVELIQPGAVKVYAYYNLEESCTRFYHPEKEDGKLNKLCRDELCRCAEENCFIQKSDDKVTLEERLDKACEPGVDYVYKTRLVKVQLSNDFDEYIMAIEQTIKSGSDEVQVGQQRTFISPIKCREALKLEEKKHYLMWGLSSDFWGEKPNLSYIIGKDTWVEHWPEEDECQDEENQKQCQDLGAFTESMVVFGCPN
T3 sequence (P01024 1002-1303 limits assumed): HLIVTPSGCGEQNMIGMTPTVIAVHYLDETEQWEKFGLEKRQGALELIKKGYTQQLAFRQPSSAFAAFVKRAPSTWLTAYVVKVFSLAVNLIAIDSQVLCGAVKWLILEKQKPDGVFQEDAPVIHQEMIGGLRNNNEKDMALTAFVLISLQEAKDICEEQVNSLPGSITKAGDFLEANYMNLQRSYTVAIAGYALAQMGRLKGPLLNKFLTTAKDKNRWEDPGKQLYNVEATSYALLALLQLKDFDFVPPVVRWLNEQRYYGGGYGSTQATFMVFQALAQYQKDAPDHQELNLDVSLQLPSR

Row | Binder | Fold Activity at Highest Dose (Relative to Control) (CRP [1]) [fold] | Fold Activity (Compared to CFHT-I62) (CRP [2]) [fold] | Fold Activity (Compared to CFHT-I62) (C3b protein [3]) [fold] | Fold Activity at Highest Dose (Relative to Control) (C3b protein [4]) [fold] | Fold Activity (Compared to CFHT-I62) (C3d ligand) [fold] | Fold Activity at Highest Dose (Relative to Control) (C3b protein [5]) [fold] | Fold Activity at Highest Dose (Relative to Control) (CRP [6]) [fold] | IC50, decay acceleration activity (DAA) assay (C3 convertase, C3bBb) [nM] | fold less active than unmodified CFHT, DAA assay (C3 convertase, C3bBb) [fold]
1 | B1 | 6.4 | 2.2 | 55.3 | 22 | 2.1 | – | – | – | –
2 | B2 | – | – | – | – | – | 3.8 | 2.8 | – | –
3 | B3 | – | – | – | 1.5 | – | – | – | – | –
4 | B4 | 6.3 | 12.2 | 40.1 | 43 | 3.8 | – | – | 15.5 | 8
5 | B5 | 49 | – | – | 99 | – | – | – | – | –
